IntAct's records for PubMed 21920025

Tests used:
prio_human PRNP = prio_human PRNP (UniProt P04156)
prio_bovin PRNP = prio_bovin PRNP (UniProt P10279)

Substance: Major prion protein (Bos taurus (Bovine)) (from UniProt P10279) L149I
- effect of a mutation on the interaction (prio_human PRNP): decreasing interaction

Substance: Major prion protein (Homo sapiens) (from UniProt P04156) M129V
- effect of a mutation on the interaction (prio_bovin PRNP): decreasing interaction
